Measured values from US20080267974A1 (SCHERING, published 2008).
Where “and” joins values, the source holds several entries; their conditions need not be identical. Equal values may be shown once. Read-outs that look alike come from different tables or passages of the source.

Legend:
[1] = biological target: T1, tumor necrosis factor alpha (TNFα) (human, UniProt P01375 77-233); assay: affinity by IC50 ELISA (so named in paragraph 380)
[2] = biological target: T1, tumor necrosis factor alpha (TNFα); assay: Biacore (SPR); MAb captured by immobilised goat anti-human IgG polyclonal antibody, TNFα as analyte
[3] = biological target: T1, tumor necrosis factor alpha (TNFα); assay: affinity by IC50 ELISA (so named in paragraph 380); remark: listed apart in the source
[4] = biological target: T1, tumor necrosis factor alpha (TNFα); assay: affinity by IC50 ELISA (so named in paragraph 380); remark: listed apart in the source
[5] = biological target: T1, tumor necrosis factor alpha (TNFα); assay: cell-based or functional assay
[6] = biological target: T1, tumor necrosis factor alpha (TNFα); assay: affinity by IC50 ELISA (so named in paragraph 380); remark: listed apart in the source
[7] = biological target: T1, tumor necrosis factor alpha (TNFα); assay: affinity by IC50 ELISA (so named in paragraph 380); remark: listed apart in the source
[8] = biological target: T1, tumor necrosis factor alpha (TNFα); assay: affinity by IC50 ELISA (so named in paragraph 380); remark: listed apart in the source
[9] = biological target: T1, tumor necrosis factor alpha (TNFα); assay: affinity by IC50 ELISA (so named in paragraph 380); remark: listed apart in the source
[10] = biological target: T1, tumor necrosis factor alpha (TNFα); assay: affinity by IC50 ELISA (so named in paragraph 380); remark: listed apart in the source

T1 sequence (P01375 77-233 limits assumed): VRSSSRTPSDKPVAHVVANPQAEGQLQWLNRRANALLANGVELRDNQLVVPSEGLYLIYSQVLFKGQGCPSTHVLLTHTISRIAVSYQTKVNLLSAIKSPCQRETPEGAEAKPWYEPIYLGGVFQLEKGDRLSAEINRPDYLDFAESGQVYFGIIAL

Molecule: Humira® (antibody)
- Affinity [1]: 0.09 nM
- Ka [2]: 3.31e+10 M⁻¹
- Kd [2]: 30.3 pM

B1: MAb 813 (antibody, V domains shown)
VH: EVQLLESGGGLIQPGGSLRLSCAASGFTVSSNYMSWVRQAPGKGLEWVSVIYSGGRTYYADSVKGRFTISRDSSKNTLYLQMNSLRAEDTAVYYCARNYYGSTYDYWGQGTLVTVSS
VL: EIVLTQSPVTLSVPPGERASLSCRASQNIYTAVAWYQQKPGQAPRLLIYGASTRATGIPARFSGGGSGTDYTLTISSLESEDFAVYHCQQYMSWPLTFGGGTKLEIK
notes: IgG1/kappa, CHO; also called H1192/L309
- Affinity [3]: 0.42 nM
- Affinity [4]: 0.42 nM

B2: MAb 1896 (antibody, V domains shown)
VH: EVQLVESGGGLIQPGGSLRLSCAVSGLNVSRDYMSWVRQAPGKGLEWISVIYRGGATMYADSVKGRFTISRDTSKNTVFLQMSRLKVADTAVYYCARNYYGSTLDYWGQGTLVTVSS
VL: EIVLTQSPVTLSVPPGERASLSCRASQNIYTAVAWYQQKPGQAPRLLIYNASTRATGIPARFSGGGSGTDYTLTISSLESEDFAVYHCQQWHSWPLTFGGGTKLEIK
notes: IgG1/kappa, CHO; also called H1685/L459
- IC50, TNFα cytotoxicity assay (WEHI-13VAR cells) [5]: 790 pM and 900 pM
- Affinity [3]: 0.08 nM
- Affinity [6]: 0.08 nM
- Affinity [7]: 0.08 nM

B3: MAb 1895 (antibody, V domains shown)
VH: EVQLVESGGGLIQPGGSLRLSCAVSGLNVSRDYMSWVRQAPGKGLEWISVIYRGGATMYADSVKGRFTISRDTSKNTVFLQMSRLKVADTAVYYCARNYYGSTHDYWGQGTLVTVSS
VL: EIVLTQSPVTLSVPPGERASLSCRASQNIYTAVAWYQQKPGQAPRLLIYNASTRATGIPARFSGGGSGTDYTLTISSLESEDFAVYHCQQWHSWPLTFGGGTKLEIK
notes: IgG1/kappa, CHO; also called H1596/L459
- IC50, TNFα cytotoxicity assay (WEHI-13VAR cells) [5]: 890 pM
- Affinity [3]: 0.09 nM
- Affinity [6]: 0.09 nM

B4: MAb 2071 (antibody, V domains shown)
VH: EVQLVESGGGLIQPGGSLRLSCAVSGLNVSRDYMSWVRQAPGKGLEWISVIYRGGVTMYADSVKGRFTISRDTSKNTVFLQMSRLKVADTAVYYCARNYYGSTLDYWGQGTLVTVSS
VL: EIVLTQSPATLSVSPGERASLSCRASQNIYTAVAWYQQKPGQAPRLLIYNAATRATGIPARFSGGGSGTDYTLTISSLESEDFAVYHCQQWHSWPLTFGGGTKLEIK
notes: IgG1/kappa, CHO; also called H1844/L472
- IC50, TNFα cytotoxicity assay (WEHI-13VAR cells) [5]: 30 pM and 40 pM
- Affinity [3]: 0.01 nM
- Affinity [8]: 0.01 nM
- Ka [2]: 1.77e+11 M⁻¹
- Kd [2]: 5.7 pM
- koff [2]: 3.91e-05 s⁻¹
- kon [2]: 6.92e+06 M⁻¹ s⁻¹

B5: MAb 2060 (antibody, V domains shown)
VH: EVQLVESGGGLIQPGGSLRLSCAVSGLNVSRDYMSWVRQAPGKGLEWISVIYRGGVTMYADSVKGRFTISRDTSKNTVFLQMSRLKVADTAVYYCARNYYGSTLDYWGQGTLVTVSS
VL: EIVLTQSPATLSVSPGERASLSCRASQNIYTAVAWYQQKPGQAPRLLIYNASTRATGIPARFSGGGSGTDYTLTISSLESEDFAVYHCQQWHSWPLTFGGGTKLEIK
notes: IgG1/kappa, CHO; also called H1844/L471
- IC50, TNFα cytotoxicity assay (WEHI-13VAR cells) [5]: 140 pM
- Affinity [3]: 0.02 nM
- Affinity [8]: 0.02 nM

B6: MAb 1850 (antibody, V domains shown)
VH: EVQLLESGGGLIQPGGSLRLSCAASGFTVGNNYMSWVRQAPGKGLEWVSVIYSAGSTYYADSVKGRFIISRDNSKDTVYLQMNSLRVDDTAVYYCARNYYGSTHDYWGQGTLVTVSS
VL: EIVLTQSPVTLSVPPGERASLSCRASQNIYTAVAWYQQKPGQAPRLLIYGASTRATGIPARFSGGGSGTDYTLTISSLESEDFAVYHCQQWHSWPLTFGGGTKLEIK
notes: IgG1/kappa, CHO; also called H1727/L332
- Affinity [3]: 0.59 nM
- Affinity [9]: 0.59 nM

B7: MAb 815 (antibody, V domains shown)
VH: EVQLLESGGGLIQPGGSLRLSCAASGFTVSSNYMSWVRQAPGKGLEWVSVIYSGGRTYYADSVKGRFTISRDSSKNTLYLQMNSLRAEDTAVYYCARNYYGSTYDYWGQGTLVTVSS
VL: EIVLTQSPVTLSVPPGERASLSCRASQNIYTAVAWYQQKPGQAPRLLIYGASTRATGIPARFSGGGSGTDYTLTISSLESEDFAVYHCQQYHAWPLTFGGGTKLEIK
notes: IgG1/kappa, CHO; also called H1192/L311
- Affinity [3]: 0.36 nM
- Affinity [4]: 0.36 nM

B8: MAb 1874 (antibody, V domains shown)
VH: EVQLLESGGGLIQPGGSLRLSCAASGFTVGNNYMSWVRQAPGKGLEWVSVIYSAGSTYYADSVKGRFIISRDNSKDTVYLQMNSLRVDDTAVYYCARNYYGSTMDYWGQGTLVTVSS
VL: EIVLTQSPVTLSVPPGERASLSCRASQNIYTAVAWYQQKPGQAPRLLIYGASTRATGIPARFSGGGSGTDYTLTISSLESEDFAVYHCQQWHSWPLTFGGGTKLEIK
notes: IgG1/kappa, CHO; also called H1725/L332
- Affinity [3]: 0.38 nM
- Affinity [9]: 0.38 nM

B9: MAb 1852 (antibody, V domains shown)
VH: EVQLLESGGGLIQPGGSLRLSCAASGFTVGNNYMSWVRQAPGKGLEWVSVIYSAGSTYYADSVKGRFIISRDNSKDTVYLQMNSLRVDDTAVYYCARNYYGSTLDYWGQGTLVTVSS
VL: EIVLTQSPVTLSVPPGERASLSCRASQNIYTAVAWYQQKPGQAPRLLIYGASTRATGIPARFSGGGSGTDYTLTISSLESEDFAVYHCQQWHSWPLTFGGGTKLEIK
notes: IgG1/kappa, CHO; also called H1729/L332
- Affinity [3]: 0.41 nM
- Affinity [9]: 0.41 nM

B10: MAb 1851 (antibody, V domains shown)
VH: EVQLLESGGGLIQPGGSLRLSCAASGFTVGNNYMSWVRQAPGKGLEWVSVIYSAGSTYYADSVKGRFIISRDNSKDTVYLQMNSLRVDDTAVYYCARNYYGSTFDYWGQGTLVTVSS
VL: EIVLTQSPVTLSVPPGERASLSCRASQNIYTAVAWYQQKPGQAPRLLIYGASTRATGIPARFSGGGSGTDYTLTISSLESEDFAVYHCQQWHSWPLTFGGGTKLEIK
notes: IgG1/kappa, CHO; also called H1728/L332
- Affinity [3]: 0.26 nM
- Affinity [9]: 0.26 nM

B11: MAb 1371 (antibody, V domains shown)
VH: EVQLVESGGGLIQPGGSLRLSCAVSGLNVSRDYMSWVRQAPGKGLEWISVIYRGGATMYADSVKGRFTISRDTSKNTVFLQMSRLKVADTAVYYCARNYYGSTHDYWGQGTLVTVSS
VL: EIVLTQSPVTLSVPPGERASLSCRASQNIYTAVAWYQQKPGQAPRLLIYGASTRATGIPARFSGGGSGTDYTLTISSLESEDFAVYHCQQWHSWPLTFGGGTKLEIK
notes: IgG1/kappa, CHO; also called H1596/L332
- IC50, TNFα cytotoxicity assay (WEHI-13VAR cells) [5]: 2000 pM and 3080 pM
- Affinity [3]: 0.2 nM
- Affinity [10]: 0.2 nM
- Affinity [6]: 0.2 nM

B12: MAb 855 (antibody, V domains shown)
VH: EVQLLESGGGLIQPGGSLRLSCAASGFTVSSNYMSWVRQAPGKGLEWVSVIYSGGRTYYADSVKGRFTISRDSSKNTLYLQMNSLRAEDTAVYYCARNYYGSTYDYWGQGTLVTVSS
VL: EIVLTQSPVTLSVPPGERASLSCRASQNIYTAVAWYQQKPGQAPRLLIYGASTRATGIPARFSGGGSGTDYTLTISSLESEDFAVYHCQQWHSWPLTFGGGTKLEIK
notes: IgG1/kappa, CHO; also called H1192/L332
- IC50, TNFα cytotoxicity assay (WEHI-13VAR cells) [5]: 3500 pM
- Affinity [3]: 0.25 nM
- Affinity [4]: 0.25 nM

B13: MAb 2090 (antibody, V domains shown)
VH: EVQLVESGGGLIQPGGSLRLSCAVSGLNVSRDYMSWVRQAPGKGLEWISVIYRIGATMYADSVKGRFTISRDTSKNTVFLQMSRLKVADTAVYYCARNYYGSTLDYWGQGTLVTVSS
VL: EIVLTQSPATLSVSPGERASLSCRASQNIYTAVAWYQQKPGQAPRLLIYNAATRATGIPARFSGGGSGTDYTLTISSLESEDFAVYHCQQWHSWPLTFGGGTKLEIK
notes: IgG1/kappa, CHO; also called H1813/L472
- IC50, TNFα cytotoxicity assay (WEHI-13VAR cells) [5]: 90 pM
- Affinity [3]: 0.02 nM
- Affinity [8]: 0.02 nM
- Ka [2]: 1.2e+11 M⁻¹
- Kd [2]: 8.4 pM
- koff [2]: 5.42e-05 s⁻¹
- kon [2]: 6.49e+06 M⁻¹ s⁻¹

B14: MAb 1780 (antibody, V domains shown)
VH: EVQLVESGGGLIQPGGSLRLSCAVSGLNVSRDYMSWVRQAPGKGLEWISVIYRGGATMYADSVKGRFTISRDTSKNTVFLQMSRLKVADTAVYYCARNYYGSTLDYWGQGTLVTVSS
VL: EIVLTQSPVTLSVPPGERASLSCRASQNIYTAVAWYQQKPGQAPRLLIYGASTRATGIPARFSGGGSGTDYTLTISSLESEDFAVYHCQQWHSWPLTFGGGTKLEIK
notes: IgG1/kappa, CHO; also called H1685/L332
- IC50, TNFα cytotoxicity assay (WEHI-13VAR cells) [5]: 1600 pM and 3180 pM
- Affinity [3]: 0.23 nM
- Affinity [10]: 0.23 nM
- Affinity [6]: 0.23 nM
